Laboratory results taken from IntAct's records for PubMed 31515488.

B1: Elongin-A2 (Homo sapiens), Q8IYF1 (parent)
chain: MAAGSTTLHAVEKLQVRLATKTEPKKLEKYLQKLSALPMTADILAETGIRKTVKRLRKHQHVGDFARDLAARWKKLVLVDRNTRPGPQDPEESASRQRFGEALQDQEKAWGFPENATAPRSPSHSPEHRRTARRTPPGQQRPHPRSHSREPRAERKCPRIAPADSGRYRASPTRTAPLRMPEGPEPAAPGKQPGRGHTHAAQGGPLLCPGCQGQPQGKAVVSHSKGHKSSRQEKRPLCAQGDWHSPTLIREKSCGACLREETPRMPSWASARDRQPSDFKTDKEGGQAGSGQRVPALEEAPDSHQKRPQHSHSNKKRPSLDGRDPGNGTHGLSPEEKEQLSNDRETQEGKPPTAHLDRTSVSSLSEVEEVDMAEEFEQPTLSCEKYLTYDQLRKQKKKTGKSATTALGDKQRKANESKGTRESWDSAKKLPPVQESQSERLQAAGADSAGPKTVPSHVFSELWDLSEAWMQANYDPLSDSDSMTSQAKPEALSSPKFREEAAFPGRRVNAKMPVYSGSRPACQLQVPTLRQQCAQVLRNNPDALSDVGEVPYWVLEPVLEGWRPDQLYRRKKDNHALVRETDELRRNHCFQDFKEEKPQENKTWREQYLRLPDAPEQRLRVMTTNIRSARGNNPNGREAKMICFKSVAKTPYDTSRRQEKSAGDADPENGEIKPASKPAGSSHTPSSQSSSGGGRDSSSSILRWLPEKRANPCLSSSNEHAAPAAKTRKQAAKKVAPLMAKAIRDYKRRFSRR
partner: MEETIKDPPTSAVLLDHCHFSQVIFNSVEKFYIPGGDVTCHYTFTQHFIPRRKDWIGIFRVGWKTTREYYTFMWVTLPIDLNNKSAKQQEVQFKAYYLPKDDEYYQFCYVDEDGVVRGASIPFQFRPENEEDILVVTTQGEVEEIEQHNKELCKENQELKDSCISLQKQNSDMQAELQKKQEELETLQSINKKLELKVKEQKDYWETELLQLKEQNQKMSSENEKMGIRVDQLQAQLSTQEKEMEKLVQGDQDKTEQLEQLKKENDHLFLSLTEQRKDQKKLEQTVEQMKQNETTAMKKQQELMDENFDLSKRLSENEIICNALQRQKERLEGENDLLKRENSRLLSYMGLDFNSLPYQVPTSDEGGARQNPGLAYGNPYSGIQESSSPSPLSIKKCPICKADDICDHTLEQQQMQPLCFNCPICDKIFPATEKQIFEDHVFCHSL
B2: E3 ubiquitin-protein ligase CHIP (Homo sapiens), Q9UNE7 (parent)
chain: MKGKEEKEGGARLGAGGGSPEKSPSAQELKEQGNRLFVGRKYPEAAACYGRAITRNPLVAVYYTNRALCYLKMQQHEQALADCRRALELDGQSVKAHFFLGQCQLEMESYDEAIANLQRAYSLAKEQRLNFGDDIPSALRIAKKKRWNSIEERRIHQESELHSYLSRLIAAERERELEECQRNHEGDEDDSHVRAQQACIEAKHDKYMADMDELFSQVDEKRKKRDIPDYLCGKISFELMREPCITPSGITYDRKDIEEHLQRVGHFDPVTRSPLTQEQLIPNLAMKEVIDAFISENGWVEDY
B3: Hematopoietic prostaglandin D synthase (Homo sapiens), O60760 (parent)
chain: MPNYKLTYFNMRGRAEIIRYIFAYLDIQYEDHRIEQADWPEIKSTLPFGKIPILEVDGLTLHQSLAIARYLTKNTDLAGNTEMEQCHVDAIVDTLDDFMSCFPWAEKKQDVKEQMFNELLTYNAPHLMQDLDTYLGGREWLIGNSVTWADFYWEICSTTLLVFKPDLLDNHPRLVTLRKKVQAIPAVANWIKRRPQTKL
partner: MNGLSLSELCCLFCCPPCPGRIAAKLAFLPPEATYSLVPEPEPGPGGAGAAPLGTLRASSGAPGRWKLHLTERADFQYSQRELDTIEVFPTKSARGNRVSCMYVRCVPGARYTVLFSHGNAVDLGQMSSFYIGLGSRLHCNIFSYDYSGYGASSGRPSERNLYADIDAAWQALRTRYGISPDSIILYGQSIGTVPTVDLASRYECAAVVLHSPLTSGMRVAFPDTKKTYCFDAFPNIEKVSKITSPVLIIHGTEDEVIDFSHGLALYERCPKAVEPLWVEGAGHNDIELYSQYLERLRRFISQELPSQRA
B4: Prelamin-A/C (Homo sapiens), P02545 (parent)
chain: METPSQRRATRSGAQASSTPLSPTRITRLQEKEDLQELNDRLAVYIDRVRSLETENAGLRLRITESEEVVSREVSGIKAAYEAELGDARKTLDSVAKERARLQLELSKVREEFKELKARNTKKEGDLIAAQARLKDLEALLNSKEAALSTALSEKRTLEGELHDLRGQVAKLEAALGEAKKQLQDEMLRRVDAENRLQTMKEELDFQKNIYSEELRETKRRHETRLVEIDNGKQREFESRLADALQELRAQHEDQVEQYKKELEKTYSAKLDNARQSAERNSNLVGAAHEELQQSRIRIDSLSAQLSQLQKQLAAKEAKLRDLEDSLARERDTSRRLLAEKEREMAEMRARMQQQLDEYQELLDIKLALDMEIHAYRKLLEGEEERLRLSPSPTSQRSRGRASSHSSQTQGGGSVTKKRKLESTESRSSFSQHARTSGRVAVEEVDEEGKFVRLRNKSNEDQSMGNWQIKRQNGDDPLLTYRFPPKFTLKAGQVVTIWAAGAGATHSPPTDLVWKAQNTWGCGNSLRTALINSTGEEVAMRKLVRSVTVVEDDEDEDGDDLLHHHHGSHCSSSGDPAEYNLRSRTVLCGTCGQPADKASASGSGAQVGGPISSGSSASSVTVTRSYRSVGGSGGGSFGDNLVTRSYLLGNSSPRTQSPQNCSIM
partner: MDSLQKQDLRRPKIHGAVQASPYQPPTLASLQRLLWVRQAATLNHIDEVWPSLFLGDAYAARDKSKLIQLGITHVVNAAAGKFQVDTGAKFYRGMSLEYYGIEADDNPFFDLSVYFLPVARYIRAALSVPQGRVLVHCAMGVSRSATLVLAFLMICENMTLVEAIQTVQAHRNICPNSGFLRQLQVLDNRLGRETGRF
B5: Homeobox protein VENTX (Homo sapiens), O95231 (parent)
chain: MRLSSSPPRGPQQLSSFGSVDWLSQSSCSGPTHTPRPADFSLGSLPGPGQTSGAREPPQAVSIKEAAGSSNLPAPERTMAGLSKEPNTLRAPRVRTAFTMEQVRTLEGVFQHHQYLSPLERKRLAREMQLSEVQIKTWFQNRRMKHKRQMQDPQLHSPFSGSLHAPPAFYSTSSGLANGLQLLCPWAPLSGPQALMLPPGSFWGLCQVAQEALASAGASCCGQPLASHPPTPGRPSLGPALSTGPRGLCAMPQTGDAF
partner: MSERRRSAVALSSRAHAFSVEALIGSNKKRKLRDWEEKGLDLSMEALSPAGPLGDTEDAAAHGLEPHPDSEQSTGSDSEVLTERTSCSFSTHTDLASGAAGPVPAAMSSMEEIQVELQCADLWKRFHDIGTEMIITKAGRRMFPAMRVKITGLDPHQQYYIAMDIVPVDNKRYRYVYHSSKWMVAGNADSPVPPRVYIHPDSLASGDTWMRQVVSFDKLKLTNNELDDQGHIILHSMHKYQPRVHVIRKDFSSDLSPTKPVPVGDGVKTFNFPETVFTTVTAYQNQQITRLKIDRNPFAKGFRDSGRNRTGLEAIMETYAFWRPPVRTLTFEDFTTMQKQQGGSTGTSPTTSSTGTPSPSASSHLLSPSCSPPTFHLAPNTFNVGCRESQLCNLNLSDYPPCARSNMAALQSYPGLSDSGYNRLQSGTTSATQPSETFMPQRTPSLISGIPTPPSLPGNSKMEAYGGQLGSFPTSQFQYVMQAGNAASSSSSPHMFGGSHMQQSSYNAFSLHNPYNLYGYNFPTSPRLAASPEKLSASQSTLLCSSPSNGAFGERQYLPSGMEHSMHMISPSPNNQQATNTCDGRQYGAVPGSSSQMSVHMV
B6: Tyrosine-protein kinase FRK (Homo sapiens), P42685 (parent)
chain: MSNICQRLWEYLEPYLPCLSTEADKSTVIENPGALCSPQSQRHGHYFVALFDYQARTAEDLSFRAGDKLQVLDTLHEGWWFARHLEKRRDGSSQQLQGYIPSNYVAEDRSLQAEPWFFGAIGRSDAEKQLLYSENKTGSFLIRESESQKGEFSLSVLDGAVVKHYRIKRLDEGGFFLTRRRIFSTLNEFVSHYTKTSDGLCVKLGKPCLKIQVPAPFDLSYKTVDQWEIDRNSIQLLKRLGSGQFGEVWEGLWNNTTPVAVKTLKPGSMDPNDFLREAQIMKNLRHPKLIQLYAVCTLEDPIYIITELMRHGSLQEYLQNDTGSKIHLTQQVDMAAQVASGMAYLESRNYIHRDLAARNVLVGEHNIYKVADFGLARVFKVDNEDIYESRHEIKLPVKWTAPEAIRSNKFSIKSDVWSFGILLYEIITYGKMPYSGMTGAQVIQMLAQNYRLPQPSNCPQQFYNIMLECWNAEPKERPTFETLRWKLEDYFETDSSYSDANNFIR
partner: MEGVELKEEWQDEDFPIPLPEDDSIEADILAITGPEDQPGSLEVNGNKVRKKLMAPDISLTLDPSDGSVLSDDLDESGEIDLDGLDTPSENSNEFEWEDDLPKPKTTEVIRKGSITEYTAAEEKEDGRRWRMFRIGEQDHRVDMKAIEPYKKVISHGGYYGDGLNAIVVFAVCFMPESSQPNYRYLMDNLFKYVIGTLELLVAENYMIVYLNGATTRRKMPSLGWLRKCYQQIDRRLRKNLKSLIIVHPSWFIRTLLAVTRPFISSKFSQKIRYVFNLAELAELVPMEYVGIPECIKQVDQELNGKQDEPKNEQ
B7: Syntenin-2 (Homo sapiens), Q9H190 (parent)
chain: MSSLYPSLEDLKVDQAIQAQVRASPKMPALPVQATAISPPPVLYPNLAELENYMGLSLSSQEVQESLLQIPEGDSTAVSGPGPGQMVAPVTGYSLGVRRAEIKPGVREIHLCKDERGKTGLRLRKVDQGLFVQLVQANTPASLVGLRFGDQLLQIDGRDCAGWSSHKAHQVVKKASGDKIVVVVRDRPFQRTVTMHKDSMGHVGFVIKKGKIVSLVKGSSAARNGLLTNHYVCEVDGQNVIGLKDKKIMEILATAGNVVTLTIIPSVIYEHMVKKLPPVLLHHTMDHSIPDA
partner: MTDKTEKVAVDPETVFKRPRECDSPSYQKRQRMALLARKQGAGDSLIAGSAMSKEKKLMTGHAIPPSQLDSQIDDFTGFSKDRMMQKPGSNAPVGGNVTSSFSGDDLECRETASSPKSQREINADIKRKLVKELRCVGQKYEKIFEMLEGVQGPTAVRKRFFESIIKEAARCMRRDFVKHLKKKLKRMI
B8: Zinc finger protein 473 (Homo sapiens), Q8WTR7 (parent)
chain: MAEEFVTLKDVGMDFTLGDWEQLGLEQGDTFWDTALDNCQDLFLLDPPRPNLTSHPDGSEDLEPLAGGSPEATSPDVTETKNSPLMEDFFEEGFSQEIIEMLSKDGFWNSNFGEACIEDTWLDSLLGDPESLLRSDIATNGESPTECKSHELKRGLSPVSTVSTGEDSMVHNVSEKTLTPAKSKEYRGEFFSYSDHSQQDSVQEGEKPYQCSECGKSFSGSYRLTQHWITHTREKPTVHQECEQGFDRNASLSVYPKTHTGYKFYVCNEYGTTFSQSTYLWHQKTHTGEKPCKSQDSDHPPSHDTQPGEHQKTHTDSKSYNCNECGKAFTRIFHLTRHQKIHTRKRYECSKCQATFNLRKHLIQHQKTHAAKTTSECQECGKIFRHSSLLIEHQALHAGEEPYKCNERGKSFRHNSTLKIHQRVHSGEKPYKCSECGKAFHRHTHLNEHRRIHTGYRPHKCQECVRSFSRPSHLMRHQAIHTAEKPYSCAECKETFSDNNRLVQHQKMHTVKTPYECQECGERFICGSTLKCHESVHAREKQGFFVSGKILDQNPEQKEKCFKCNKCEKTFSCSKYLTQHERIHTRGVKPFECDQCGKAFGQSTRLIHHQRIHSRVRLYKWGEQGKAISSASLIKLQSFHTKEHPFKCNECGKTFSHSAHLSKHQLIHAGENPFKCSKCDRVFTQRNYLVQHERTHARKKPLVCNECGKTFRQSSCLSKHQRIHSGEKPYVCDYCGKAFGLSAELVRHQRIHTGEKPYVCQECGKAFTQSSCLSIHRRVHTGEKPYRCGECGKAFAQKANLTQHQRIHTGEKPYSCNVCGKAFVLSAHLNQHLRVHTQETLYQCQRCQKAFRCHSSLSRHQRVHNKQQYCL
partner: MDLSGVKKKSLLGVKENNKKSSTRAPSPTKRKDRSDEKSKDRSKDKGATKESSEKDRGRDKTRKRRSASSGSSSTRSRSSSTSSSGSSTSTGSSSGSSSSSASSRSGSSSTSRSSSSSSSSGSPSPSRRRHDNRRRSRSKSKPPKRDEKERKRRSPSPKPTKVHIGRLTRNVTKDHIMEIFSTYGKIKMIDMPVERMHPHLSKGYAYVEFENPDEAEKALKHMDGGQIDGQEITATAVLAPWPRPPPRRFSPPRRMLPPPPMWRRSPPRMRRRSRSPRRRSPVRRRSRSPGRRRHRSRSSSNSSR

Variants of: B1
Details: with caco2_human CALCOCO2, Q13137

| Variant | effect of a mutation on the interaction |
| --- | --- |
| D302H | with no effect |

Variants of: B2
Details: with noe3_human OLFM3, Q96PB7
Chain of noe3_human OLFM3, Q96PB7 (Q96PB7 whole entry): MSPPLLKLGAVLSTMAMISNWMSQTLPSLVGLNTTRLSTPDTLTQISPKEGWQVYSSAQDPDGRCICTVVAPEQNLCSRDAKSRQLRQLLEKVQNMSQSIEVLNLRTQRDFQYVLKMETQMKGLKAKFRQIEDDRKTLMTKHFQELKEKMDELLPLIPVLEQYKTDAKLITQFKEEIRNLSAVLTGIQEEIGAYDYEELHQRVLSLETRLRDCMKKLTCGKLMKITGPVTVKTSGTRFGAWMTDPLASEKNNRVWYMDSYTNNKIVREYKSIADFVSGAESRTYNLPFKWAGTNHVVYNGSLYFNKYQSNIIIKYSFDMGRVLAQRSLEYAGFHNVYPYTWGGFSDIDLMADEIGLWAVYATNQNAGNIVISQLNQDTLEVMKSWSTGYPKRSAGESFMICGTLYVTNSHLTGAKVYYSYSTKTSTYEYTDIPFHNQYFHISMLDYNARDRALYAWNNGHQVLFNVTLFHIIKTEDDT

| Variant | effect of a mutation on the interaction |
| --- | --- |
| Q181H | with no effect |

Variants of: B3
Details: with ab17a_human ABHD17A

| Variant | effect of a mutation on the interaction |
| --- | --- |
| M128T | disrupting interaction strength |

Variants of: B4
Details: with ds13b_human DUSP13B

| Variant | effect of a mutation on the interaction |
| --- | --- |
| I299V | with no effect |

Variants of: B5
Details: with tbx15_human TBX15, Q96SF7

| Variant | effect of a mutation on the interaction |
| --- | --- |
| A226E | with no effect |
| L42P | with no effect |
| M251V | with no effect |

Variants of: B6
Details: with bnip2_human BNIP2, Q12982

| Variant | effect of a mutation on the interaction |
| --- | --- |
| G122R | disrupting interaction strength |

Variants of: B7
Details: with ct453_human CT45A3, Q8NHU0

| Variant | effect of a mutation on the interaction |
| --- | --- |
| R223C | with no effect |

Variants of: B8
Details: with rnps1_human RNPS1, Q15287

| Variant | effect of a mutation on the interaction |
| --- | --- |
| S59G | with no effect |
| N82S | with no effect |
